Results reported in PMC2576301, “The crystal structure of the catalytic domain of a eukaryotic guanylate cyclase” (BMC Structural Biology, 2008).

Assays:
[1] = target: catalytic domain of the soluble guanylate cyclase CYG12 from Chlamydomonas reinhardtii (Chlamydomonas reinhardtii); assay: crystal structure; sitting-drop vapor diffusion, 20°C; 0.1 M sodium cacodylate pH 5.0-6.4, 42-62% saturated (NH4)2HPO4; molecular replacement; 2.55 Å; one dimer per asymmetric unit
[2] = substrate: Nc1nc2c(ncn2[C@@H]2O[C@H](COP(=O)(O)OP(=O)(O)OP(=O)(O)O)[C@@H](O)[C@H]2O)c(=O)[nH]1; assay: cGMP formation, enzyme immunoassay; Hill fit; type: biochemical, Chlamydomonas reinhardtii; conditions: 4 mM MnCl2, pH 7.5, 24 °C, 5 mM dithiothreitol, 2 min, positive cooperativity, Hill coefficient 1.49 ± 0.16

Q: Which stoichiometry N [1] does the source give for “catalytic domain of the soluble guanylate cyclase CYG12 from Chlamydomonas reinhardtii (domain or fragment)” here?
A: 2

B1: guanylate cyclase catalytic domain of CYG12 (Chlamydomonas reinhardtii) (protein)
chain: APAQEHPEATVLFSDIVGFTEIASRSSPLEVCSLLDELYQRFDAAIEEYPQLYKVETIGDAYMVVCNVTVPCDDHADVLLEFALRMHEEASRVASSLGEPVRIRVGMHSGPVVAGVVGRKMPRFCLFGDTVNTASRMESHGEAGQIHISEACYCCLRSKERFEIRERGNITVKGKGTMRTYLLSPLER
notes: catalytic domain, residues 468-655 of 991; His-SMT3 (SUMO) fusion cleaved off; expressed in E. coli Tuner(DE3); homodimer
Q: How did the K0.5 [2] turn out when B1 was run?
A: 269 ± 26 µM
